Test results from article PMC10411901, “FIRRM cooperates with FIGNL1 to promote RAD51 disassembly during DNA repair” (Science Advances, 2023).

T1: recombinant full-length FIRRM (human, UniProt Q9NSG2 1-853)
T1 construct: full-length codon-optimized human FIRRM from GenScript; Insect cell form: modified pFastBac dual vector with an N-terminal GFP tag removable with TEV protease; also called iFIRRM (form from insect cells); source: purified from bacteria (E. coli BL21RP) or Sf9 insect cells
T1 sequence (looked up): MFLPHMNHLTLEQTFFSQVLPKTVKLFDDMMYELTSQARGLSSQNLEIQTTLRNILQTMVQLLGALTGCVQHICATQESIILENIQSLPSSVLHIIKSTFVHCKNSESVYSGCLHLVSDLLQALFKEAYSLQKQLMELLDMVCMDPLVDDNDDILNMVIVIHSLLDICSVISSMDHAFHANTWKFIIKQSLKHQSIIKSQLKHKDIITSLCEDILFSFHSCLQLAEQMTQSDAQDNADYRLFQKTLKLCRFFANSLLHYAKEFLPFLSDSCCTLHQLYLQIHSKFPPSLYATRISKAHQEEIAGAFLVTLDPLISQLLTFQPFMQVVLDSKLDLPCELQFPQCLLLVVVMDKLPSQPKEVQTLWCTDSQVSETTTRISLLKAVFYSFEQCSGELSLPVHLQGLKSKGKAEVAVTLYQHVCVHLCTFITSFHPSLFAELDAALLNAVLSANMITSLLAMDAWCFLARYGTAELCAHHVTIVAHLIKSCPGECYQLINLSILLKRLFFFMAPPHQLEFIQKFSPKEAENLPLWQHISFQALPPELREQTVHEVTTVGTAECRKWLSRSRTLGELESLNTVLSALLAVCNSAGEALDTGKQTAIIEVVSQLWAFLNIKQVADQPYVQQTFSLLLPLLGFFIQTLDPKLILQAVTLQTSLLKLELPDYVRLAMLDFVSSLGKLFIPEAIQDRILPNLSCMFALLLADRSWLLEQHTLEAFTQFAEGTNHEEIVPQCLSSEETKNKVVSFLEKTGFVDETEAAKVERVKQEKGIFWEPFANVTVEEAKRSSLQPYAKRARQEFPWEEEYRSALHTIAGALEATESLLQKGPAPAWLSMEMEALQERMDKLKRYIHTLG


Tests used:
[1] = target: T1, recombinant full-length FIRRM; assay: co-IP; purified recombinant RAD51, FIRRM and FIGNL1 together; anti-RAD51 14B4 on protein A/G Sepharose; IPB buffer (20 mM KPO4 pH 7.4, 175 mM KCl, 0.5 mM EDTA, 0.5% NP-40, 10% glycerol, 1 mM DTT); Western blot; settings: both partners purified
[2] = target: the molecule itself; assay: cryo-EM two-dimensional class averages; FIGNL1 10 μM in 1× PBS with 2 mM MgCl2 and 1 mM AMP-PNP on graphene oxide lacey carbon grids; 2D classes from 1287 particles; hexamer model from an AlphaFold monomer

| Binder | binding result [1] | stoichiometry N [2] |
| --- | --- | --- |
| recombinant full-length FIGNL1 (natural protein, human, UniProt Q6PIW4 1-674, looked up, Insect cell form: modified pFastBac dual vector with an N-terminal GFP tag removable with TEV protease; source: purified from bacteria (E. coli BL21RP) or Sf9 insect cells) MQTSSSRSVHLSEWQKNYFAITSGICTGPKADAYRAQILRIQYAWANSEISQVCATKLFKKYAEKYSAIIDSDNVESGLNNYAENILTLAGSQQTDSDKWQSGLSINNVFKMSSVQKMMQAGKKFKDSLLEPALASVVIHKEATVFDLPKFSVCGSSQESDSLPNSAHDRDRTQDFPESNRLKLLQNAQPPMVTNTARTCPTFSAPVGESATAKFHVTPLFGNVKKENHSSAKENIGLNVFLSNQSCFPAACENPQRKSFYGSGTIDALSNPILNKACSKTEDNGPKEDSSLPTFKTAKEQLWVDQQKKYHQPQRASGSSYGGVKKSLGASRSRGILGKFVPPIPKQDGGEQNGGMQCKPYGAGPTEPAHPVDERLKNLEPKMIELIMNEIMDHGPPVNWEDIAGVEFAKATIKEIVVWPMLRPDIFTGLRGPPKGILLFGPPGTGKTLIGKCIASQSGATFFSISASSLTSKWVGEGEKMVRALFAVARCQQPAVIFIDEIDSLLSQRGDGEHESSRRIKTEFLVQLDGATTSSEDRILVVGATNRPQEIDEAARRRLVKRLYIPLPEASARKQIVINLMSKEQCCLSEEEIEQIVQQSDAFSGADMTQLCREASLGPIRSLQTADIATITPDQVRPIAYIDFENAFRTVRPSVSPKDLELYENWNKTFGCGK | binds |  |
| FIGNL1 purified from insect cells (natural protein, human, UniProt Q6PIW4 1-674, looked up, The GFP tag is removable with tobacco etch virus protease; the results speak of the protein from insect cells; source: Sf9 insect cells (baculovirus), purified (gel filtration)) MQTSSSRSVHLSEWQKNYFAITSGICTGPKADAYRAQILRIQYAWANSEISQVCATKLFKKYAEKYSAIIDSDNVESGLNNYAENILTLAGSQQTDSDKWQSGLSINNVFKMSSVQKMMQAGKKFKDSLLEPALASVVIHKEATVFDLPKFSVCGSSQESDSLPNSAHDRDRTQDFPESNRLKLLQNAQPPMVTNTARTCPTFSAPVGESATAKFHVTPLFGNVKKENHSSAKENIGLNVFLSNQSCFPAACENPQRKSFYGSGTIDALSNPILNKACSKTEDNGPKEDSSLPTFKTAKEQLWVDQQKKYHQPQRASGSSYGGVKKSLGASRSRGILGKFVPPIPKQDGGEQNGGMQCKPYGAGPTEPAHPVDERLKNLEPKMIELIMNEIMDHGPPVNWEDIAGVEFAKATIKEIVVWPMLRPDIFTGLRGPPKGILLFGPPGTGKTLIGKCIASQSGATFFSISASSLTSKWVGEGEKMVRALFAVARCQQPAVIFIDEIDSLLSQRGDGEHESSRRIKTEFLVQLDGATTSSEDRILVVGATNRPQEIDEAARRRLVKRLYIPLPEASARKQIVINLMSKEQCCLSEEEIEQIVQQSDAFSGADMTQLCREASLGPIRSLQTADIATITPDQVRPIAYIDFENAFRTVRPSVSPKDLELYENWNKTFGCGK |  | 6 |
